Data set [1] is described as follows: circular dichroism spectroscopy. The class given is physicochemical. Conditions: 1 mg/mL peptide, phosphate buffer 0.1 M, pH = 7.4, 25 °C, 1 cm cuvette, averages of five scans; negative peak around 200 nm. As to the method:
The circular dichroism spectra were measured with Jasco J-815 CD spectrometer equipped with thermostated cell holder in a rectangular 1 cm cuvette (Jasco Inc., Easton, MD, USA). Conditions: concentration of peptides = 1 mg/mL, phosphate buffer = 0.1 M, pH = 7.4, temperature = 25 °C. Spectra are presented as averages of five scans, and corrected for buffer spectrum.

Data set [2] addresses T1, Erythropoietin P2 epitope peptide (Homo sapiens).
T1 chain: LKLYTGEACRTGDR
Kind of data set: microscale thermophoresis.

For data set [3], the target named is T1, Erythropoietin P2 epitope peptide. Description: tryptophan fluorescence titration.

On to LKLYTGEACRTGDR, for which the “secondary structure by CD spectroscopy” value in data set [1] is reported as “random coil structure”. For the molecule DFDIWPLRTAWPLS [EPO-P2 antisense peptide], the dissociation constant Kd in data set [2] came out at 816 µM; in data set [3], 850 µM.

(Values after publication PMC4100090, “A Simple Three-Step Method for Design and Affinity Testing of New Antisense Peptides: An Example of Erythropoietin” (International Journal of Molecular Sciences, 2014).)
